Data published in patent US20050256058A1 (GEORGIA TECH RESEARCH, published 2005).
Numbered stars: 1 amine (or outer) side, 2 acyl side, 3 side chain; on linkers, the order of the positions; unused ones are H or OH. Square brackets hold non-standard residues; d marks the D form. * marks the point of attachment. CH═CH‑CON(CH3)CH2CH2Ph = CN(CCc1ccccc1)C(=O)/C=C/*; AAsp = aza-Asp, O=C(N(CC(=O)[*:3])N[*:1])[*:2]; CH═CH‑CON(CH3)CH2Ph = CN(Cc1ccccc1)C(=O)/C=C/*; CH═CH‑COOCH2Ph = O=C(/C=C/*)OCc1ccccc1; CH═CH‑COOEt = CCOC(=O)/C=C/*; Cbz = O=C(OCc1ccccc1)*

T1: Caspase-7 (UniProt P55210 24-303)
T1 sequence (looked up): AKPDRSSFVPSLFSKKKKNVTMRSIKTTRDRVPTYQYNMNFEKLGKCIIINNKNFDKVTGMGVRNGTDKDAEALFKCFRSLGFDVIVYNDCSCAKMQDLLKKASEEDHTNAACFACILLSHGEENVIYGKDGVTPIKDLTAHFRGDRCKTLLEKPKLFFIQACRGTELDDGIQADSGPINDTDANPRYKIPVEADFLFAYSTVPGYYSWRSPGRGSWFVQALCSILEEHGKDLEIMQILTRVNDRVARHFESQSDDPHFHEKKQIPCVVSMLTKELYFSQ

T2: Caspase-9 (UniProt P55211 1-416, limits assumed)
T2 sequence (looked up): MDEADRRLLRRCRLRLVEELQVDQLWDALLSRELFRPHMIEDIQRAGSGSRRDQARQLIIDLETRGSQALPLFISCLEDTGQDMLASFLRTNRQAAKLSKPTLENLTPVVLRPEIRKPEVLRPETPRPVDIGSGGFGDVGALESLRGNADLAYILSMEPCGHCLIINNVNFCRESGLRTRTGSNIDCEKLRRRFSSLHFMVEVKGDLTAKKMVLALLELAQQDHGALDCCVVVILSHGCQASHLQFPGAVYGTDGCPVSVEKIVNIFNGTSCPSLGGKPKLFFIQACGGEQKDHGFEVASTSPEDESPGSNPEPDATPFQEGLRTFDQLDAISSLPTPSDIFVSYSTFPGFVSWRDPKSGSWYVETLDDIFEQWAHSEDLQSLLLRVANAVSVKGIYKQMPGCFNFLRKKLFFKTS

T3: Caspase-2 (UniProt P42575 170-452, limits assumed)
T3 sequence (looked up): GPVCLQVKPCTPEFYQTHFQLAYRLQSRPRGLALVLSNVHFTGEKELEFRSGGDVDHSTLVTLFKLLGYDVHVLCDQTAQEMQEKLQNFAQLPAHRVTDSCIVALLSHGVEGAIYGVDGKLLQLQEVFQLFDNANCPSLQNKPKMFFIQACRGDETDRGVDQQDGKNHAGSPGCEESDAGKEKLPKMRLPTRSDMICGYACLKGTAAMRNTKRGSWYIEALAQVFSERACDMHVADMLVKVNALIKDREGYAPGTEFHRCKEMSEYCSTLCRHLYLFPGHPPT

T4: Caspase-3 (UniProt P42574 29-277)
T4 sequence (looked up): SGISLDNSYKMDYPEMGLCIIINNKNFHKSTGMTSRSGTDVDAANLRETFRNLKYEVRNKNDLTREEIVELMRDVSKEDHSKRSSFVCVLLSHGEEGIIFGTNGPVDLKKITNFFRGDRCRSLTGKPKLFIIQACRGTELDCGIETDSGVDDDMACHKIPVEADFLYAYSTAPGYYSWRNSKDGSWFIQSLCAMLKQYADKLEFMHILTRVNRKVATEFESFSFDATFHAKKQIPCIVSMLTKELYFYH

T5: Caspase-6 (UniProt P55212 24-293, limits assumed)
T5 sequence (looked up): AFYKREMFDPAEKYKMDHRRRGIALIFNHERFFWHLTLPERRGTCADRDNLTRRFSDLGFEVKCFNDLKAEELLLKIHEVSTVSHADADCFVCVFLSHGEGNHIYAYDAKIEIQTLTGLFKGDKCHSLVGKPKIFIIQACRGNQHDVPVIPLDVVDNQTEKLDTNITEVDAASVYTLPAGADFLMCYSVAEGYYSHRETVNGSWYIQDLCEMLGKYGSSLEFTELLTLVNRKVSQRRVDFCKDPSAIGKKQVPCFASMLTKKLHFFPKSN

T6: Caspase-10 (UniProt Q92851 220-521, limits assumed)
T6 sequence (looked up): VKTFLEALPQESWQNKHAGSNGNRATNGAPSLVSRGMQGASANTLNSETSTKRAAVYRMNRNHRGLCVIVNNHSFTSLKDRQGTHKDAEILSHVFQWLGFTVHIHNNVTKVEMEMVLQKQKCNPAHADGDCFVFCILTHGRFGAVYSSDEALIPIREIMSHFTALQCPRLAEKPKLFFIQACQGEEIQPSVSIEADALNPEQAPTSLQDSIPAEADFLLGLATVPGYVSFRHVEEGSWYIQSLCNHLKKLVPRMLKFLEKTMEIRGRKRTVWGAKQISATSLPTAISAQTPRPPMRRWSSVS


Columns and labels:
Experiment in all cases: cell-based or functional assay
Caspase-7 = target: T1, Caspase-7
Caspase-9 = target: T2, Caspase-9
Caspase-2 = target: T3, Caspase-2
Caspase-3 = target: T4, Caspase-3
Caspase-6 = target: T5, Caspase-6
Caspase-8 = Caspase-8 (UniProt Q14790 217-479)
Caspase-8, sequence (Q14790 217-479 limits assumed): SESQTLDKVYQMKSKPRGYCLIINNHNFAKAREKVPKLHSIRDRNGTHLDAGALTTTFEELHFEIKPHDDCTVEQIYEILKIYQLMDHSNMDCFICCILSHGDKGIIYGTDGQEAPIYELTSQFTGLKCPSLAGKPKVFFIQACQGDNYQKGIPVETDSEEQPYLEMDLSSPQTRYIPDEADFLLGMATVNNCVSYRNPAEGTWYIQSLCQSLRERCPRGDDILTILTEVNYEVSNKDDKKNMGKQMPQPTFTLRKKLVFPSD

Caspase-10 = target: T6, Caspase-10

Binder | k2 (Caspase-7) [M⁻¹ s⁻¹] | k2 (Caspase-9) [M⁻¹ s⁻¹] | k2 (Caspase-2) [M⁻¹ s⁻¹] | k2 (Caspase-3) [M⁻¹ s⁻¹] | k2 (Caspase-6) [M⁻¹ s⁻¹] | k2 (Caspase-8) [M⁻¹ s⁻¹] | k2 (Caspase-10) [M⁻¹ s⁻¹]
Cbz-Val-[AAsp]-{CH═CH‑CH═CH‑CH3} [Cbz-Val-AAsp-CH═CH-CH═CH-CH3] | 56 |  |  |  |  |  | 
Cbz-Val-[AAsp]-{CH═CH‑4‑Cl‑Ph} [Cbz-Val-AAsp-CH═CH-4-Cl-Ph] |  | 19 |  |  |  |  | 
Cbz-DEV[AAsp]-{CH═CH‑CO‑tetrahydroquinoline} [Cbz-Asp-Glu-Val-AAsp-CH═CH-CON-tetrahydroquinoline] | 137000 | 340 | 390 | 2.3e+06 | 5700 | 118000 | 8330
Cbz-DEV[AAsp]-{CH═CH‑CON(CH3)CH2Ph} (SMILES CC(C)[C@H](NC(=O)[C@H](CCC(=O)O)NC(=O)[C@H](CC(=O)O)NC(=O)OCc1ccccc1)C(=O)NN(CC(=O)O)C(=O)/C=C/C(=O)N(C)Cc1ccccc1) [Cbz-Asp-Glu-Val-AAsp-CH═CH-CON(CH3)CH2Ph] | 275000 | 820 | 660 | 2.64e+06 | 9500 | 90300 | 29400
Cbz-Val-[AAsp]-{CH═CH‑CONHCH2Ph} [Cbz-Val-AAsp-CH═CH-CONHCH2Ph] | 60 | 20 |  | 185 |  |  | 
Cbz-LET[AAsp]-{CH═CH‑CONHCH2CH2Ph} [Cbz-Leu-Glu-Thr-AAsp-CH═CH-CONHCH2CH2Ph] | 440 | 1760 | 110 | 5400 | 2150 | 121000 | 17900
Cbz-DEV[AAsp]-{CH═CH‑CON(CH3)CH2CH2Ph} (SMILES CC(C)[C@H](NC(=O)[C@H](CCC(=O)O)NC(=O)[C@H](CC(=O)O)NC(=O)OCc1ccccc1)C(=O)NN(CC(=O)O)C(=O)/C=C/C(=O)N(C)CCc1ccccc1) [Cbz-Asp-Glu-Val-AAsp-CH═CH-CON(CH3)CH2CH2Ph] | 172000 | 425 | 320 | 1.18e+06 | 4000 | 31900 | 9570
Cbz-LET[AAsp]-{CH═CH‑COOCH2Ph} (SMILES CC(C)C[C@H](NC(=O)OCc1ccccc1)C(=O)N[C@@H](CCC(=O)O)C(=O)N[C@H](C(=O)NN(CC(=O)O)C(=O)/C=C/C(=O)OCc1ccccc1)[C@@H](C)O) [Cbz-Leu-Glu-Thr-AAsp-CH═CH-COOCH2Ph] | 1570 |  | 480 | 4600 | 47600 | 98400 | 18900
Cbz-LET[AAsp]-{CH═CH‑CONHCH2‑4‑F‑Ph} [Cbz-Leu-Glu-Thr-AAsp-CH═CH-CONHCH2-4-F-Ph] | 410 | 1700 | 70 | 4490 | 3100 | 171000 | 9380
Cbz-Glu-Val-[AAsp]-{CH═CH‑COOEt} (SMILES CCOC(=O)/C=C/C(=O)N(CC(=O)O)NC(=O)[C@@H](NC(=O)[C@H](CCC(=O)O)NC(=O)OCc1ccccc1)C(C)C) [Cbz-Glu-Val-AAsp-CH═CH-COOEt] | 52400 |  | 90 | 38600 | 3540 |  | 8940
Cbz-LET[AAsp]-{CH═CH‑CON(CH3)CH2Ph} (SMILES CC(C)C[C@H](NC(=O)OCc1ccccc1)C(=O)N[C@@H](CCC(=O)O)C(=O)N[C@H](C(=O)NN(CC(=O)O)C(=O)/C=C/C(=O)N(C)Cc1ccccc1)[C@@H](C)O) [Cbz-Leu-Glu-Thr-AAsp-CH═CH-CON(CH3)CH2Ph] | 520 | 4320 | 140 | 6000 | 10800 | 169000 | 8430
Cbz-LET[AAsp]-{CH═CH‑CON(CH3)CH2CH2Ph} (SMILES CC(C)C[C@H](NC(=O)OCc1ccccc1)C(=O)N[C@@H](CCC(=O)O)C(=O)N[C@H](C(=O)NN(CC(=O)O)C(=O)/C=C/C(=O)N(C)CCc1ccccc1)[C@@H](C)O) [Cbz-Leu-Glu-Thr-AAsp-CH═CH-CON(CH3)CH2CH2Ph] | 290 | 960 | 50 | 2620 | 2550 | 65300 | 6190
Cbz-DEV[AAsp]-{CH═CH‑CON(CH2-1-Napth)2} [Cbz-Asp-Glu-Val-AAsp-CH═CH-CON(CH2-1-Napth)2] | 875000 | 150 | 410 | 5.62e+06 | 29700 | 9460 | 32500
Cbz-LET[AAsp]-{CH═CH‑CONHPh} [Cbz-Leu-Glu-Thr-AAsp-CH═CH-CONHPh] | 730 | 1190 | 290 | 4700 | 11400 | 176000 | 6050
Cbz-DEV[AAsp]-{cis‑CH═CH‑COOEt} [Cbz-Asp-Glu-Val-AAsp-CH═CH-COOEt (cis)] | 139000 |  | 26200 | 1.06e+06 | 11000 | 181000 | 13500
Cbz-Val-[AAsp]-{CH═CH‑Cl} (also: cis isomer) [Cbz-Val-AAsp-CH═CH-Cl] |  | 15 |  |  |  |  | 
Cbz-Val-[AAsp]-{CH═CH‑CONH‑nBu} [Cbz-Val-AAsp-CH═CH-CONH-nBu] | 55 | 32 |  | 184 |  |  | 
Cbz-DEV[AAsp]-{CH═CH‑COPh} [Cbz-Asp-Glu-Val-AAsp-CH═CH-COPh] | 10800 |  | 165 | 122000 | 1800 | 9720 | 930
Cbz-DEV[AAsp]-{CH═CH‑CONHCH2‑4‑F‑Ph} [Cbz-Asp-Glu-Val-AAsp-CH═CH-CONHCH2-4-F-Ph] | 329000 | 900 |  | 2.1e+06 | 4400 | 85100 | 37700
Cbz-LET[AAsp]-{CH═CH‑CONHCH2Ph} [Cbz-Leu-Glu-Thr-AAsp-CH═CH-CONHCH2Ph] | 340 | 1400 | 66 | 1120 | 1550 | 70200 | 14400
Cbz-Val-[AAsp]-{CH═CH‑COOEt} [Cbz-Val-AAsp-CH═CH-COOEt] | 2680 | 5240 |  | 8000 |  |  | 389
